# Laboratory results from patent publication US20220267412A1 (SERPLUS TECHNOLOGY, published 2022).
# T1: human neutrophil elastase (human, UniProt P08246 30-247, limits assumed)
# T1 sequence (looked up): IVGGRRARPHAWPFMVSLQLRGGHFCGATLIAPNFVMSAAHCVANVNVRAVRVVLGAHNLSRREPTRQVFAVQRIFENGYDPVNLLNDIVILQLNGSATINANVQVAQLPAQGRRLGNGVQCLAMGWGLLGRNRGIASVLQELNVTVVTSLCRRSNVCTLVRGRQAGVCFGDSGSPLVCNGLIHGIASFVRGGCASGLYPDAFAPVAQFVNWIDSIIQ
# T2: neutrophil proteinase 3 (UniProt P24158 28-248, limits assumed)
# T2 sequence (looked up): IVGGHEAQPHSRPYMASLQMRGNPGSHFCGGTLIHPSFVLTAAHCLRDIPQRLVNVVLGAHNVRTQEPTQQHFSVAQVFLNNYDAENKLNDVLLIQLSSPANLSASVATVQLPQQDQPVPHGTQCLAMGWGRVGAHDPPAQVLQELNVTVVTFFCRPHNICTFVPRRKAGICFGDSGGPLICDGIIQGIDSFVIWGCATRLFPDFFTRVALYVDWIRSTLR
# B1: recombinant human serpin B1, wild type (rhsB1-cys344), reduced active monomer (other)
# chain: MEQLSSANTRFALDLFLALSENNPAGNIFISPFSISSAMAMVFLGTRGNTAAQLSKTFHFNTVEEVHSRFQSLNADINKRGASYILKLANRLYGEKTYNFLPEFLVSTQKTYGADLASVDFQHASEDARKTINQWVKGQTEGKIPELLASGMVDNMTKLVLVNAIYFKGNWKDKFMKEATTNAPFRLNKKDRKTVKMMYQKKKFAYGYIEDLKCRVLELPYQGEELSMVILLPDDIEDESTGLKKIEEQLTLEKLHEWTKPENLDFIEVNVSLPRFKLEESYTLNSDLARLGVQDLFNSSKADLSGMSGARDIFISKIVHKSFVEVNEEGTEAAAATAGIATFCMLMPEENFTADHPFLFFIRHNSSGSILFLGRFSSP
# B2: human serpin B1 C344G variant (other)
# chain: MEQLSSANTRFALDLFLALSENNPAGNIFISPFSISSAMAMVFLGTRGNTAAQLSKTFHFNTVEEVHSRFQSLNADINKRGASYILKLANRLYGEKTYNFLPEFLVSTQKTYGADLASVDFQHASEDARKTINQWVKGQTEGKIPELLASGMVDNMTKLVLVNAIYFKGNWKDKFMKEATTNAPFRLNKKDRKTVKMMYQKKKFAYGYIEDLKCRVLELPYQGEELSMVILLPDDIEDESTGLKKIEEQLTLEKLHEWTKPENLDFIEVNVSLPRFKLEESYTLNSDLARLGVQDLFNSSKADLSGMSGARDIFISKIVHKSFVEVNEEGTEAAAATAGIATFGMLMPEENFTADHPFLFFIRHNSSGSILFLGRFSSP
# B3: human serpin B1 C344V variant (other)
# chain: MEQLSSANTRFALDLFLALSENNPAGNIFISPFSISSAMAMVFLGTRGNTAAQLSKTFHFNTVEEVHSRFQSLNADINKRGASYILKLANRLYGEKTYNFLPEFLVSTQKTYGADLASVDFQHASEDARKTINQWVKGQTEGKIPELLASGMVDNMTKLVLVNAIYFKGNWKDKFMKEATTNAPFRLNKKDRKTVKMMYQKKKFAYGYIEDLKCRVLELPYQGEELSMVILLPDDIEDESTGLKKIEEQLTLEKLHEWTKPENLDFIEVNVSLPRFKLEESYTLNSDLARLGVQDLFNSSKADLSGMSGARDIFISKIVHKSFVEVNEEGTEAAAATAGIATFVMLMPEENFTADHPFLFFIRHNSSGSILFLGRFSSP
# B4: rhsB1M*, post-translationally modified (oxidized) monomeric form of rhsB1-cys344 (other)
# chain: MEQLSSANTRFALDLFLALSENNPAGNIFISPFSISSAMAMVFLGTRGNTAAQLSKTFHFNTVEEVHSRFQSLNADINKRGASYILKLANRLYGEKTYNFLPEFLVSTQKTYGADLASVDFQHASEDARKTINQWVKGQTEGKIPELLASGMVDNMTKLVLVNAIYFKGNWKDKFMKEATTNAPFRLNKKDRKTVKMMYQKKKFAYGYIEDLKCRVLELPYQGEELSMVILLPDDIEDESTGLKKIEEQLTLEKLHEWTKPENLDFIEVNVSLPRFKLEESYTLNSDLARLGVQDLFNSSKADLSGMSGARDIFISKIVHKSFVEVNEEGTEAAAATAGIATFCMLMPEENFTADHPFLFFIRHNSSGSILFLGRFSSP
# modifications: Cys-344 in an irreversibly oxidized state (chemical nature of the modification not determined)
# B5: peroxynitrite oxidized (inactivated) wild-type rhsB1 (other)
# chain: MEQLSSANTRFALDLFLALSENNPAGNIFISPFSISSAMAMVFLGTRGNTAAQLSKTFHFNTVEEVHSRFQSLNADINKRGASYILKLANRLYGEKTYNFLPEFLVSTQKTYGADLASVDFQHASEDARKTINQWVKGQTEGKIPELLASGMVDNMTKLVLVNAIYFKGNWKDKFMKEATTNAPFRLNKKDRKTVKMMYQKKKFAYGYIEDLKCRVLELPYQGEELSMVILLPDDIEDESTGLKKIEEQLTLEKLHEWTKPENLDFIEVNVSLPRFKLEESYTLNSDLARLGVQDLFNSSKADLSGMSGARDIFISKIVHKSFVEVNEEGTEAAAATAGIATFCMLMPEENFTADHPFLFFIRHNSSGSILFLGRFSSP
# modifications: oxidized by peroxynitrite (Cys-344 per the filing; chemical nature not determined)
# B6: human serpin B1 C344A variant (other)
# chain: MEQLSSANTRFALDLFLALSENNPAGNIFISPFSISSAMAMVFLGTRGNTAAQLSKTFHFNTVEEVHSRFQSLNADINKRGASYILKLANRLYGEKTYNFLPEFLVSTQKTYGADLASVDFQHASEDARKTINQWVKGQTEGKIPELLASGMVDNMTKLVLVNAIYFKGNWKDKFMKEATTNAPFRLNKKDRKTVKMMYQKKKFAYGYIEDLKCRVLELPYQGEELSMVILLPDDIEDESTGLKKIEEQLTLEKLHEWTKPENLDFIEVNVSLPRFKLEESYTLNSDLARLGVQDLFNSSKADLSGMSGARDIFISKIVHKSFVEVNEEGTEAAAATAGIATFAMLMPEENFTADHPFLFFIRHNSSGSILFLGRFSSP
# B7: rhsB1D, intermolecular disulfide-bonded dimeric form of rhsB1-cys344 (other)
# chain: MEQLSSANTRFALDLFLALSENNPAGNIFISPFSISSAMAMVFLGTRGNTAAQLSKTFHFNTVEEVHSRFQSLNADINKRGASYILKLANRLYGEKTYNFLPEFLVSTQKTYGADLASVDFQHASEDARKTINQWVKGQTEGKIPELLASGMVDNMTKLVLVNAIYFKGNWKDKFMKEATTNAPFRLNKKDRKTVKMMYQKKKFAYGYIEDLKCRVLELPYQGEELSMVILLPDDIEDESTGLKKIEEQLTLEKLHEWTKPENLDFIEVNVSLPRFKLEESYTLNSDLARLGVQDLFNSSKADLSGMSGARDIFISKIVHKSFVEVNEEGTEAAAATAGIATFCMLMPEENFTADHPFLFFIRHNSSGSILFLGRFSSP
# modifications: intermolecular disulfide bond Cys-344:Cys-344 between the two monomers
# B8: human neutrophil cathepsin G (enzyme, UniProt P08311 21-244, looked up)
# chain: IIGGRESRPHSRPYMAYLQIQSPAGQSRCGGFLVREDFVLTAAHCWGSNINVTLGAHNIQRRENTQQHITARRAIRHPQYNQRTIQNDIMLLQLSRRVRRNRNVNPVALPRAQEGLRPGTLCTVAGWGRVSMRRGTDTLREVQLRVQRDRQCLRIFGSYDPRRQICVGDRRERKAAFKGDSGGPLLCNNVAHGIVSYGKSSGVPPEVFTRVSSFLPWIRTTMRS
# notes: Bought purified enzyme; also called CatG
# Columns and labels:
# [1] = target: TLCK-treated bovine alpha chymotrypsin (bovine, UniProt P00766 1-13; P00766 16-146; P00766 149-245); experiment: cell-based or functional assay
# [2] = target: T1, human neutrophil elastase; experiment: cell-based or functional assay
# [3] = target: B8; experiment: cell-based or functional assay
# [4] = target: porcine pancreatic elastase (porcine, UniProt P00772 27-266); experiment: cell-based or functional assay
# neutrophil proteinase 3 = target: T2, neutrophil proteinase 3; experiment: cell-based or functional assay
# [5] = target: B4; experiment: SDS-PAGE of enzyme:serpin complexes, no 2-ME
# [6] = target: B7; experiment: SDS-PAGE of enzyme:serpin complexes, no 2-ME
# porcine pancreatic elastase, sequence (P00772 27-266): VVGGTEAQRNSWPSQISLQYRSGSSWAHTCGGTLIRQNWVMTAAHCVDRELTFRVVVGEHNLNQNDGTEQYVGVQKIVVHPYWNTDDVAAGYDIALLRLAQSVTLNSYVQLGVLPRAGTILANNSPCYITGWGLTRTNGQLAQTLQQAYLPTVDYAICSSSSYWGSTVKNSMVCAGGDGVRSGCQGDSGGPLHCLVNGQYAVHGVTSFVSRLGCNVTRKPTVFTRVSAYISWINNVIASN
binder,measurement,setting,value
B1,"inhibition of chymotrypsin, monomer against dimer",[1],2 fold more effective than rhsB1D
same,"stoichiometry of inhibition (SOI), with 2-ME",[1],~0.5 molar ratio inhibitor:enzyme
same,stoichiometry of inhibition (SOI),[2],~2.1 molar ratio inhibitor:enzyme
same,SOI with CatG against SOI with BC,[3],~2 fold of the SOI with BC
same,"inhibition of CatG, reduced dimer against unreduced dimer",[3],~2 fold against the unreduced dimer
same,"inhibition of cathepsin G, monomer against dimer",[3],2 fold more effective than rhsB1D
same,"amount of purified protein to fully inhibit PPE (typically 160 nM, 200 uL, +40 mM 2-ME)",[4],1 µg
B2,"amount of purified protein to fully inhibit PPE (typically 160 nM, 200 uL, +40 mM 2-ME)",[4],3.5 µg
B3,"amount of purified protein to fully inhibit PPE (typically 160 nM, 200 uL, +40 mM 2-ME)",[4],1.5 µg
B4,"stoichiometry of inhibition (SOI), with or without 2-ME",[1],~3 molar ratio inhibitor:enzyme
same,"stoichiometry of inhibition (SOI), with 2-ME",[2],~13 molar ratio inhibitor:enzyme
B5,"loss of PR3 inhibitory activity, 2-fold molar excess of inhibitor",neutrophil proteinase 3,~40 % of inhibitory activity lost
B6,"amount of purified protein to fully inhibit PPE (typically 160 nM, 200 uL, +40 mM 2-ME)",[4],1 µg
B7,"stoichiometry of inhibition (SOI), no 2-ME",[1],~1 molar ratio inhibitor:enzyme
same,SOI with CatG against SOI with BC,[3],~2 fold of the SOI with BC
B8,binding result,[5],binds
same,binding result,[6],binds
